Source: US10555963B2, “Klotho protein and related compounds for the treatment and diagnosis of cancer” (TEL HASHOMER MEDICAL RESEARCH INFRASTRUCTURE AND SERVICES …, priority 2007, dated 2020)

What was measured:
MCF-7 = experiment: Colony formation assay after transfection with klotho protein expression vector; type: cell-based, human; conditions: transfected pcDNA3-HA-KL vs empty vector; G418 two weeks; p<0.0005
Method: (§1) Two days following transfection with the indicated plasmids, G418 (750 μg/ml) was added to the culture media; and at day 14, the cells were stained using gentian violet. Untransfected cells were treated similarly, and all died within the 2 weeks of culture in the selection media. Quantification of the results was performed using AlphaImager 2000 (Alpha Innotech, CA).
(§2) The effect of klotho protein on growth of breast cancer cells was first assessed using colony formation assays. MCF-7, MDA-MB-231 and the non-cancerous human embryonic kidney (HEK) 293 cells were transfected with either a HA-tagged klotho protein expression vector (pcDNA3-HI-A-KL) or an empty vector (pcDNA3). Transfected cells were cultured in media containing G418 for two weeks and stained to determine the number of surviving colonies.

MDA-MB-231 = experiment: as above; type: cell-based, human; conditions: transfected pcDNA3-HA-KL vs empty vector; G418 two weeks; p<0.0005
Method: as §1, §2

[1] = system: human embryonic kidney (HEK) 293 cells; experiment: as above; type: cell-based; conditions: transfected pcDNA3-HA-KL vs empty vector
Method: as §1, §2

[2] = system: MCF-7 and MDA-MB-231 clones; experiment: MTT proliferation assay of clones stably expressing klotho protein; type: cell-based, human; conditions: stable klotho protein-expressing clones vs pcDNA3 controls; 24-72 h
Method: (§3) The medium was aspirated, and the cells were dissolved by dimethyl sulfoxide (DMSO).
In order to assess the long-term effects of klotho protein expression, MCF-7 and MDA-MB-231 clones, which stably expressed either pcDNA3 or pcDNA3-HA-KL, were generated. Proliferation was evaluated by 3-(4,5-dimethylthiazol-2-yl)-2,5-diphenyltetrazolium bromide (MTT) assay after seeding for 24-72 h.

p53 levels in HEK 293 = experiment: Immunoblot of p53 and PARP after klotho protein over-expression; type: cell-based, human
Method: (§4) For breast cells, cells were harvested and lysed for total protein extraction in RIPA buffer (50 mM Tris-Cl pH 7.4, 150 mM NaCl, 1% NP-40, 0.25% Na-deoxycholate, 1 mM EDTA, 1 mM NaF) together with a protease inhibitor cocktail (Sigma). 50 μg protein extracts were loaded on 10% polyacrylamide gels, separated electrophoretically and blotted from the gel onto nitrocellulose membrane (Schleicher & Schuell Bioscience GmbH, Dassel, D E). The membranes were then immunoblotted with the indicated antibodies.
(§5) In fibroblasts, klotho protein reduces senescence through down-regulation of p53 (de Oliveira, 2006). The effects of klotho protein on p53 levels in MCF-7 breast cancer cells and HEK 293 were therefore analyzed.

[3] = system: p53 levels in MCF-7 cells; experiment: as above; type: cell-based, human
Method: as §4, §5

MCF-7 cells = experiment: IGF-1-induced MCF-7 proliferation after klotho protein transfection; type: cell-based, human; conditions: HA-KL-transfected cells, 0.5% serum, IGF-1 24-96 hr; control pcDNA3 cells up to 40%
Method: as §3
Klotho protein is known to inhibit activation of the IGF-1 pathway in L6 myoblasts cells and rat hepatoma H4IIE cells (Kurosu et al., 2005). This pathway plays an important role in breast cancer tumorigenesis, and IGF-1 induces MCF-7 cell proliferation (Geier et al., 1995; Yee, 2006). In order to test the ability of klotho protein to modulate IGF-1-induced proliferation and survival, MCF-7 cells were transiently transfected with either pcDNA3 or pcDNA3-HA-KL, and grown in 0.5% serum with either IGF-1 or a control vehicle for 24-96 hr.

[4] = system: IGF-1 pathway in MCF-7 cells; experiment: IGF-1 pathway activation (Western blotting) after klotho protein over-expression; type: cell-based, human; conditions: IGF-1 12.5 nM, 15 min
Method: as §4
(§6) MDA-MB-231 cells, which express lower levels of these receptors, were also examined. HEK 293 cells, whose growth is not dependent on the IGF-1 pathway (El-Shewy et al., 2007) and is not inhibited by klotho protein, served as control.
In order to elucidate klotho protein activity as an inhibitor of […] activation, MCF-7 cells were transfected with either pcDNA3-HA-KL or an empty vector, starved for 48 hours, treated with IGF-1 for the indicated times and doses, and analyzed using Western blotting for the level of expression and phosphorylation of IGF-1R.
(§7) In further experiments, MCF-7, MDA-MB-231 or HEK-293 cells were transfected with either pcDNA3-HA-KL or empty vector and treated with IGF-1 (12.5 nM, 15 min).

[5] = system: IGF-1 pathway in HEK 293 cells; experiment: as above; type: cell-based, human; conditions: IGF-1 12.5 nM, 15 min
Method: as §4, §6, §7

[6] = system: IGF-1 pathway in MDA-MB-231 cells; experiment: as above; type: cell-based, human; conditions: IGF-1 12.5 nM, 15 min, data not shown
Method: as §4, §6, §7

[7] = system: insulin pathway in MCF-7 cells; experiment: Insulin pathway activation after klotho protein over-expression; type: cell-based, human; conditions: insulin stimulation
[8] = system: insulin pathway in HEK 293 cells; experiment: as above; type: cell-based, human; conditions: insulin stimulation
[9] = system: EGF pathway in MCF-7, MDA-MB-231 and HEK293 cells; experiment: EGF pathway (ERK1/2) after klotho protein over-expression; type: cell-based, human; conditions: starved 48 hours
Method: The effects of over-expression of klotho protein on the insulin-stimulated pathway were also examined. The EGF pathway, which plays an important role in the pathogenesis of breast cancer, is not modulated by klotho protein in either L6 or H411E cells (Kurosu et al., 2005). In order to evaluate the effects of klotho protein on this pathway in MCF-7, MDA-MB-231 and HEK293 breast cancer cells, these cells were transfected with either pcDNA3-HA-KL or an empty vector, starved for 48 hours, treated with EGF, and analyzed for the expression and activity of the ERK1/2, which are downstream targets of the EGF pathway.

Panc1 cells = experiment: In vivo Panc1 tumors in athymic nude mice treated with soluble klotho protein; conditions: 200 ng/day, 500 ng/day daily intra-peritoneal, up to 4 weeks
Method: Panc1 cells were harvested, washed twice with sterile PBS, counted and resuspended in Matrigel (BD Biosciences). Six-week-old female athymic nude mice were injected subcutaneously in both flanks with cells at a density of 0.5×10^6 cells/100 μl. The mice were treated with daily intra-peritoneal injections of either soluble klotho protein (prepared as described above): 200 ng/day, 500 ng/day, or vehicle control (saline). Five mice were used in each group. Tumor size was measured weekly with a linear caliper for up to 4 weeks, and tumor volume was estimated using the equation V=(a×b^2)×0.5236, where “a” is the larger dimension and “b” the perpendicular diameter.

B1: klotho protein: full length mouse Klotho (SEQ ID NO. 3) over-expressed in cells from HA-tagged expression vector pcDNA3-HA-KL (protein)
chain: MLARAPPRRPPRLVLLRLLLLHLLLLALRARCLSAEPGQGAQTWARFARAPAPEAAGLLHDTFPDGFLWAVGSAAYQTEGGWRQHGKGASIWDTFTHHSGAAPSDSPIVVAPSGAPSPPLSSTGDVASDSYNNVYRDTEGLRELGVTHYRFSISWARVLPNGTAGTPNREGLRYYRRLLERLRELGVQPVVTLYHWDLPQRLQDTYGGWANRALADHFRDYAELCFRHFGGQVKYWITIDNPYVVAWHGYATGRLAPGVRGSSRLGYLVAHNLLLAHAKVWHLYNTSFRPTQGGRVSIALSSHWINPRRMTDYNIRECQKSLDFVLGWFAKPIFIDGDYPESMKNNLSSLLPDFTESEKRLIRGTADFFALSFGPTLSFQLLDPNMKFRQLESPNLRQLLSWIDLEYNHPPIFIVENGWFVSGTTKRDDAKYMYYLKKFIMETLKAIRLDGVDVIGYTAWSLMDGFEWHRGYSIRRGLFYVDFLSQDKELLPKSSALFYQKLIEDNGFPPLPENQPLEGTFPCDFAWGVVDNYVQVDTTLSQFTDPNVYLWDVHHSKRLIKVDGVVAKKRKPYCVDFSAIRPQITLLREMRVTHFRFSLDWALILPLGNQTQVNHTVLHFYRCMISELVHANITPVVALWQPAAPHQGLPHALAKHGAWENPHTALAFADYANLCFKELGHWVNLWITMNEPNTRNMTYRAGHHLLRAHALAWHLYDDKFRAAQKGKISIALQADWIEPACPFSQNDKEVAERVLEFDIGWLAEPIFGSGDYPRVMRDWLNQKNNFLLPYFTEDEKKLVRGSFDFLAVSHYTTILVDWEKEDPMKYNDYLEVQEMTDITWLNSPSQVAVVPWGLRKVLNWLRFKYGDLPMYVTANGIDDDPHAEQDSLRIYYIKNYVNEALKAYVLDDINLCGYFAYSLSDRSAPKSGFYRYAANQFEPKPSMKHYRRIIDSNGFLGSGTLGRFCPEEYTVCTECGFFQTRKSLLVFISFLVFTFIISLALIFHYSKKGQRSYK
modifications: HA tag
With B1 the “reduction of number and size of surviving colonies” value (MCF-7) was 84%, the “reduction of number and size of surviving colonies” value (MDA-MB-231) was 72% and the “effect on HEK 293 growth (colony assay)” value [1] was “no effect”. For the same molecule, the “proliferation slower than controls (MTT assay)” value [2] was “up to 6 fold”, the “expression or cleavage of PARP” value (p53 levels in HEK 293) was “No changes” and the p53 levels (p53 levels in HEK 293) was “reduce”. The “expression or cleavage of PARP” value [3] was “No changes”, the p53 levels [3] was “increase” and the “increase of cell proliferation by IGF-1” value (MCF-7 cells) was 25%. The “phosphorylation of IGF-1R, IRS-1, AKT1, GSK3β, ERK-1 and -2” value [4] was “reduced phosphorylation”, the “effect on IGF-1 pathway phosphorylation” value [5] was “only minor effects” and the “effect on IGF-1 pathway phosphorylation” value [6] was “Smaller effects”. The “activation of the insulin pathway” value [7] was “inhibited”, the “activation of the insulin pathway” value [8] was “not” and the “expression and phosphorylation of ERK1/2 after EGF” value [9] was “affected neither the expression nor phosphorylation”. The “tumor growth (tumor size)” value (Panc1 cells) was “significant dose-response arrest of tumor growth”.
